Several values for one entry are separate records, joined by “and”; a condition that tells them apart may be missing. Identical values can stand only once.
B1: PfHop (natural protein)
chain: MVNKEEAQRLKELGNKCFQEGKYEEAVKYFSDAITNDPLDHVLYSNLSGAFASLGRFYEALESANKCISIKKDWPKGYIRKGCAEHGLRQLSNAEKTYLEGLKIDPNNKSLQDALSKVRNENMLENAQLIAHLNNIIENDPQLKSYKEENSNYPHELLNTIKSINSNPMNIRIILSTCHPKISEGVEKFFGFKFTGEGNDAEERQRQQREEEERRKKKEEEERKKKEEEEMKKQNRTPEQIQGDEHKLKGNEFYKQKKFDEALKEYEEAIQINPNDIMYHYNKAAVHIEMKNYDKAVETCLYAIENRYNFKAEFIQVAKLYNRLAISYINMKKYDLAIEAYRKSLVEDNNRATRNALKELERRKEKEEKEAYIDPDKAEEHKNKGNEYFKNNDFPNAKKEYDEAIRRNPNDAKLYSNRAAALTKLIEYPSALEDVMKAIELDPTFVKAYSRKGNLHFFMKDYYKALQAYNKGLELDPNNKECLEGYQRCAFKIDEMSKSEKVDEEQFKKSMADPEIQQIISDPQFQIILQKLNENPNSISEYIKDPKIFNGLQKLIAAGILKVR
B2: Plasmodium falciparum Hsp110 (PfHsp70-z, PF3D7_0708800) (natural protein)
chain: MSVLGIDIGNDNSVVATINKGAINVVRNDISERLTPTLVGFTEKERLIGDSALSKLKSNYKNTCRNIKNLIGKIGTDVKDDIEIHEAYGDLIPCEYNYLGYEVEYKNEKVVFSAVRVLSALLSHLIKMAEKYIGKECKEIVLSYPPTFTNCQKECLLAATKIINANVLRIISDNTAVALDYGMYRMKEFKEDNGSLLVFVNIGYANTCVCVARFFSNKCEILCDIADSNLGGRNLDNELIKYITNIFVNNYKMNPLYKNNTPELCPMGTGRLNKFLVTSTASDQQNGINNKVRIKLQEVAIKTKKVLSANNEASIHVECLYEDLDCQGSINRETFEELCSNFFLTKLKHLLDTALCISKVNIQDIHSIEVLGGSTRVPFIQNFLQQYFQKPLSKTLIADESIARGCVLSAAMVSKHYKVKEYECVEKVTHPINVEWHNINDASKSNVEKLYTRDSLKKKVKKIVIPEKGHIKLTAYYENTPDLPSNCIKELGSCIVKINEKNDKIVESHVMTTFSNYDTFTFLGAQTVTKSVIKSKDEKKKADDKTEDKGEKKDAKDQEQNDDKDQTNDNNMNEKDTNDKKEKNNETNSPNKTELKKGEEGKVQTCYTTIPIETLLAQGSYSSKDIFNFSEQEINMQHSDILEGERLKHLNELETIIYESRSRLNGIYKNFVMDDERDRILLSLDDYENWLYDNIEENKNMFIKKKEEIRDLIKNIVQKFDVYNSKQQNLGNIINHLNNIITQCSNKPSDESQNIINRTTKFLNNINSLQEQEKNKPLYEPPVYTLNDIEAEFNEVTQLAQKFFSKLEVEELAKQKAKQEKEKEKEKEKEKEKEKEKNEETNLDANEEQNNEAKNNEEKENSTKNENSANPEE

Tests used:
[1] = biological target: PfHsp70-1LS (linker switch mutant of PfHsp70-1 carrying the linker of PfHsp70-z) (Plasmodium falciparum) (UniProt Q8IB24); test: SPR
[2] = biological target: PfHsp70-zLS (linker switch mutant of PfHsp70-z carrying the linker of canonical Hsp70) (Plasmodium falciparum) (UniProt Q8IC01); test: SPR

| Binder | Kd [1] | Kd [2] | koff [2] | kon [2] |
| --- | --- | --- | --- | --- |
| B1 | 27.7 nM and 10 nM and 37.6 nM | – | – | – |
| B2 | – | 3.17 nM and 2.79 nM and 1.84 nM | 4.15e-05 s⁻¹ and 4.36e-05 s⁻¹ and 5.32e-05 s⁻¹ | 13100 M⁻¹ s⁻¹ and 23700 M⁻¹ s⁻¹ and 19100 M⁻¹ s⁻¹ |

Source: paper PMC11066147
